How the values were obtained:
[1] = test system: N- and C-terminally tagged MDM (cell-free expressed)
[2] = test system: N- and C-terminally tagged PKA (cell-free expressed)
[3] = target: N- and C-terminally tagged APC protein (cell-free expressed, Example 45) (UniProt P25054)
Chain of UniProt P25054 (P25054 1098-1696): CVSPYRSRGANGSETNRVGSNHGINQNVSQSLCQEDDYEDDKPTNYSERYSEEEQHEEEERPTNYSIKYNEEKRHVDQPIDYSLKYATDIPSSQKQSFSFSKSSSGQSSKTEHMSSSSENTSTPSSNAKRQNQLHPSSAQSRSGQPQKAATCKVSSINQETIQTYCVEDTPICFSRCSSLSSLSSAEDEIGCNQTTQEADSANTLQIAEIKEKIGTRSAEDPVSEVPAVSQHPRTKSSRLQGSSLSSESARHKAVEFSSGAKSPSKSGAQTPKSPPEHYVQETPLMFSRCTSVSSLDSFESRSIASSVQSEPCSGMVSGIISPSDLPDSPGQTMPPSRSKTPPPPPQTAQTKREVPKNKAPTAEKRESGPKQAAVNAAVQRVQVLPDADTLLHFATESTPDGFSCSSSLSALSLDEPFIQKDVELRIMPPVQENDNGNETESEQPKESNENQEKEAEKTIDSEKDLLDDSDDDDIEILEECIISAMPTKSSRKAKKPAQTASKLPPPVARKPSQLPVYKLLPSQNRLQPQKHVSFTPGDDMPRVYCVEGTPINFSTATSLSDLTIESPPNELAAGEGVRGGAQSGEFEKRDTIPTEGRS

Caspase-3
protease substrate degradation monitored by ELISA [1]: degraded ... in a time-dependent manner
protease substrate degradation monitored by ELISA [2]: unaffected
protease substrate degradation monitored by ELISA [3]: degraded ... in a time-dependent manner
